Test results as given in doi:10.1101/2020.02.16.951632.
Values joined by “and” are separate entries in the source; they are usually repeats but may differ in a detail not shown here. Identical values can stand only once.

What was measured:
[1] = biological target: chloride intracellular channel 1 construct CLIC1C24 (UniProt O00299); assay: two-colour single-molecule TIRF colocalisation with photobleaching step counting
[2] = biological target: chloride intracellular channel 1 construct CLIC1C24 (UniProt O00299); assay: FRET or BRET

human αB-crystallin mutant αBc_(C176), fluorescently labelled (natural protein)
proportion of CLIC1C24 colocalised with αBc (C176) (maximum, after 4 hr) [1]: 50% | αBc subunits per complex (0.25 – 0.5 hr) [1]: 1 subunits and 3 subunits | αBc subunits per complex (complexes whose abundance increased after 1 hr) [1]: > 6 subunits | αBc subunits per complex (more complexes at molar ratio 2:1 to 4:1) [1]: > 10 subunits | stoichiometry N ([1]; scale: αBc per CLIC1): 1 | initial FRET efficiency (E) of the complexes [2]: 0.8 to 1
